We go through three molecules from patent EP4786495A1 (Nanjing Leads Biolabs Co., Ltd., dated 2026).

Test [1] deals with T1, human APRIL protein (ACRO Biosystems, Cat. No.: APL-H52D1) (human, UniProt O75888 115-250, limits assumed).
T1 sequence (looked up): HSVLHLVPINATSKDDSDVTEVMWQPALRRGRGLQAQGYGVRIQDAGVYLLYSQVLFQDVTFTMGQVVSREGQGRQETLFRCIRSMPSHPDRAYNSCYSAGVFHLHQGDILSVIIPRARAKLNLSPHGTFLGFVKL
As to the kind of experiment: BLI Octet RED96e, protein captured on AHC sensor, APRIL 100 nM in solution.

The target of test [2] is T2, human BAFF protein (ACRO Biosystems, Cat. No.: BAF-H52D4) (human, UniProt Q9Y275 134-285). As to the kind of experiment: BLI Octet RED96e, protein captured on AHC sensor, BAFF 100 nM in solution.
For test [3], the target named is T3, human FcRn protein (ACRO Biosystems, Cat. No.: FCM-H82W4) (human, UniProt P55899 24-297; P61769 21-119). As to the kind of experiment: BLI Octet RED96e, FcRn on SA sensor, fusion protein 3.13-200 nM; binding pH 6.0, dissociation pH 7.4. On the technique in general: Biolayer interferometry detects binding as a change in optical thickness at a sensor tip.
Test [4] concerns the target T1, human APRIL protein (ACRO Biosystems, …). As to the kind of experiment: BLI Octet RED96e, protein captured on AHC sensor, APRIL 1.56-100 nM in solution.
Test [5] has as its target T2, human BAFF protein (ACRO Biosystems, …). As to the kind of experiment: BLI Octet RED96e, protein captured on AHC sensor, BAFF 1.56-100 nM in solution.
In test [6] the target is T4, human BDCA2 protein (Kactus Biosystems, Cat# BCA-HM402) (human, UniProt Q8WTT0 45-213).
T4 construct: also called Human BDCA2-His
T4 sequence: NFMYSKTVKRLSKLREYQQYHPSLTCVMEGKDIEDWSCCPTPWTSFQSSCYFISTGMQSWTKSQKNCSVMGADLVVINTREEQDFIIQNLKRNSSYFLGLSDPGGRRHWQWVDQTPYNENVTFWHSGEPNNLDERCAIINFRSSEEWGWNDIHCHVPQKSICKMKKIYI
As to the kind of experiment: BLI Octet RED96e, fusion protein captured on AHC sensor, BDCA2 1.56-100 nM in solution.

The target of test [7] is T4, human BDCA2 protein (Kactus Biosystems, …). As to the kind of experiment: BLI Octet RED96e, protein captured on AHC sensor, BDCA2 100 nM in solution.
Test [8] addresses T3, human FcRn protein (ACRO Biosystems, …). As to the kind of experiment: BLI Octet RED96e, FcRn on SA sensor, fusion protein 3.13-200 nM; binding pH 6.0, dissociation pH 6.0.
Test [9] has as its target T1, human APRIL protein (ACRO Biosystems, …). As to the kind of experiment: BLI Octet RED96e, protein captured on AHC sensor, APRIL 1.56-100 nM in solution. The source holds these as a separate data set.
The target of test [10] is T4, human BDCA2 protein (Kactus Biosystems, …). As to the kind of experiment: BLI Octet RED96e, fusion protein captured on AHC sensor, BDCA2 1.56-100 nM in solution. The source holds these as a separate data set.
Test [11] concerns the target T2, human BAFF protein (ACRO Biosystems, …). As to the kind of experiment: BLI Octet RED96e, protein captured on AHC sensor, BAFF 1.56-100 nM in solution. This is another data set of the same source.

T2 sequence (Q9Y275 134-285 limits assumed): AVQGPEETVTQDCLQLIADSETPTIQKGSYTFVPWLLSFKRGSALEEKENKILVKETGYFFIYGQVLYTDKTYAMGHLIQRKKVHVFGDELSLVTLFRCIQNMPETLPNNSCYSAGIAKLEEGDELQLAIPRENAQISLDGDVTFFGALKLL
T3 sequence (P55899 24-297 limits assumed, chain 1 of 2): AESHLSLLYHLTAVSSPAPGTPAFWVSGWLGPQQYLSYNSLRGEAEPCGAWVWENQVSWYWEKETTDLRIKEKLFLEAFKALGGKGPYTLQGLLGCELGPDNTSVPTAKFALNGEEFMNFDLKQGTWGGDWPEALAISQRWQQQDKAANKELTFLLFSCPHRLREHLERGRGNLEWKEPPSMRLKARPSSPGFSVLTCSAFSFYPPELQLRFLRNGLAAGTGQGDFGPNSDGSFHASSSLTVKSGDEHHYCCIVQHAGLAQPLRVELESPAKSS
T3 sequence (P61769 21-119 limits assumed, chain 2 of 2): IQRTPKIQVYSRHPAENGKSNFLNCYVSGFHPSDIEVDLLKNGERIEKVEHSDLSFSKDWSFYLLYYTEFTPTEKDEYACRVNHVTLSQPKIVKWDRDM

B1: bispecific fusion protein BI-9ND2-A (bispecific antibody, human IgG1, kappa)
heavy: not shown
light: ETVLTQSPATLSLSPGERATLSCRASSSVSYMYWFQQKPGQAPRLLIYSTSNLASGIPARFSGSGSGTDYTLTISSLEPEDFAVYYCQQRRNYPHTFGGGTKVEIKRTVAAPSVFIFPPSDEQLKSGTASVVCLLNNFYPREAKVQWKVDNALQSGNSQESVTEQDSKDSTYSLSSTLTLSKADYEKHKVYACEVTHQGLSSPVTKSFNRGEC
notes: also called heavy chain 37F2C6-HuVH3-3N-D2
Consider B1, for which the Kd in test [1] was < 0.001 nM; in [2] it was < 0.001 nM; in [3], 3140 nM; in test [4], 0.415 nM; in test [5] it was 0.147 nM; in [6], < 0.001 nM. Also, the results for the Kd in [7] and in [8] were < 0.001 nM and 20.1 nM, respectively. Also, the results for the “Response (nm)” value in test [1], in [2] and in [7] were 0.397 nm, 0.49 nm and 0.449 nm, respectively. Moreover, the koff in test [1] was < 1e-07 s⁻¹; in test [2], < 1e-07 s⁻¹; in [3], 0.0842 s⁻¹; in [4] it was 0.000321 s⁻¹; in test [5], 7.23e-05 s⁻¹; in test [6], < 1e-07 s⁻¹. For the same molecule, the koff in test [7] is < 1e-07 s⁻¹; in test [8] it was 0.035 s⁻¹. For the same molecule, the kon in [1] stood at 722000 M⁻¹ s⁻¹; in test [2], 438000 M⁻¹ s⁻¹; in test [3], 26800 M⁻¹ s⁻¹; in test [4], 774000 M⁻¹ s⁻¹; in test [5], 492000 M⁻¹ s⁻¹; in [6], 86600 M⁻¹ s⁻¹. Also, the kon in test [7] stood at 112000 M⁻¹ s⁻¹; in [8] it was 1.74e+06 M⁻¹ s⁻¹.

B2: bispecific fusion protein having YTE mutations in the Fc region BI-9ND2-A-YTE (bispecific antibody, human IgG1, kappa)
heavy: SLSCRKEQGKFYDHLLRDCISCASICGQHPKQCAYFCENGGGGSGGGGSGGGGSQVQLVQSGAEVKKPGASVKVSCKASGYTFTDFAVHWVRQAPGQRLEWMGLIGTSSGSTNYNQKFQGRATMTVDKSANTAYMELSSLRSEDTAVYYCARNGYYVGYYALDYWGQGTTVTVSSASTKGPSVFPLAPSSKSTSGGTAALGCLVKDYFPEPVTVSWNSGALTSGVHTFPAVLQSSGLYSLSSVVTVPSSSLGTQTYICNVNHKPSNTKVDKKVEPKSCDKTHTCPPCPAPELLGGPSVFLFPPKPKDTLYITREPEVTCVVVDVSHEDPEVKFNWYVDGVEVHNAKTKPREEQYNSTYRVVSVLTVLHQDWLNGKEYKCKVSNKALPAPIEKTISKAKGQPREPQVYTLPPSRDELTKNQVSLTCLVKGFYPSDIAVEWESNGQPENNYKTTPPVLDSDGSFFLYSKLTVDKSRWQQGNVFSCSVMHEALHNHYTQKSLSLSPGK
light: B1 light
notes: also called heavy chain 37F2C6-HuVH3-ND2-YTE
As to B2, the dissociation constant (Kd) in [9] was < 0.001 nM; in test [10] it was < 0.001 nM; in test [3], 727 nM; in test [11] it was 0.0384 nM; in test [8] it was 5.12 nM. Also, the koff in test [9] is < 1e-07 s⁻¹; in [10], < 1e-07 s⁻¹; in test [3], 0.0888 s⁻¹; in test [11], 1.97e-05 s⁻¹; in test [8], 0.0062 s⁻¹. For the same molecule, the kon came to 981000 M⁻¹ s⁻¹ in [9]; 100000 M⁻¹ s⁻¹ in test [10]; 122000 M⁻¹ s⁻¹ in test [3]; 515000 M⁻¹ s⁻¹ in test [11]; 1.21e+06 M⁻¹ s⁻¹ in test [8].

B3: control antibody telitacicept (Fc fusion)
chain: SRVDQEERFPQGLWTGVAMRSCPEEQYWDPLLGTCMSCKTICNHQSQRTCAAFCRSLSCRKEQGKFYDHLLRDCISCASICGQHPKQCAYFCENKLRSPVNLPPELDKTHTCPPCPAPEAEGAPSVFLFPPKPKDTLMISRTPEVTCVVVDVSHEDPEVKFNWYVDGVEVHNAKTKPREEQYNSTYRVVSVLTVLHQDWLNGKEYKCKVSNKALPSSIEKTISKAKGQPREPQVYTLPPSRDELTKNQVSLTCLVKGFYPSDIAVEWESNGQPENNYKTTPPVLDSDGSFFLYSKLTVDKSRWQQGNVFSCSVMHEALHNHYTQKSLSLSPGK
notes: TACI-Fc fusion control; also called TACI fusion protein telitacicept
For the molecule B3, the Kd in test [1] is 2.08 nM; in test [9], 2.05 nM; in [2], 1.1 nM; in test [4], 2.05 nM; in test [5], 1.47 nM; in test [11], 1.47 nM. In addition, the “Response (nm)” value is 0.199 nm in test [1], 0.319 nm in test [2] and -0.0175 nm in [7]. In addition, the koff was found to be 0.00141 s⁻¹ in [1]; 0.00139 s⁻¹ in test [9]; 0.000262 s⁻¹ in [2]; 0.00139 s⁻¹ in test [4]; 0.000475 s⁻¹ in test [5]; 0.000475 s⁻¹ in test [11]. Moreover, the kon was 681000 M⁻¹ s⁻¹ in test [1]; 678000 M⁻¹ s⁻¹ in test [9]; 239000 M⁻¹ s⁻¹ in test [2]; 678000 M⁻¹ s⁻¹ in test [4]; 323000 M⁻¹ s⁻¹ in test [5]; 95600 M⁻¹ s⁻¹ in test [7]. In addition, in test [11], the kon worked out at 323000 M⁻¹ s⁻¹.

The Kd is the constant that tells how readily two partners part at equilibrium. As a reminder, the koff is the first-order rate constant of dissociation. In general, kon refers to the rate constant with which the complex forms. A high value points to faster complex formation.
